Results published in patent publication US8728478.
“And” between values parts separate entries of the source, which are not always exact repeats. Equal entries are not always repeated.

Tests used:
[1] = target: Escherichia coli heat-stable enterotoxin A (STa), purified from a bovine ETEC K99+ isolate (Escherichia coli (ETEC isolated from a diarrheic neonatal calf))
[2] = target: Escherichia coli heat-stable enterotoxin A (STa), purified from a bovine ETEC K99+ isolate (Escherichia coli (ETEC isolated from a diarrheic neonatal calf)); test: avidity ELISA on plate-bound STa, 5 M ammonium thiocyanate, Baseline
[3] = target: Escherichia coli heat-stable enterotoxin A (STa), purified from a bovine ETEC K99+ isolate (Escherichia coli (ETEC isolated from a diarrheic neonatal calf)); test: indirect ELISA on plate-bound STa, serum dilution 10^-3, pre-immunization serum
[4] = target: Escherichia coli heat-stable enterotoxin A (STa), purified from a bovine ETEC K99+ isolate (Escherichia coli (ETEC isolated from a diarrheic neonatal calf)); test: indirect ELISA on plate-bound STa, serum dilution 10^-4, pre-immunization serum
[5] = target: Escherichia coli heat-stable enterotoxin A (STa), purified from a bovine ETEC K99+ isolate (Escherichia coli (ETEC isolated from a diarrheic neonatal calf)); test: STa-binding indirect ELISA, end titer
[6] = target: Escherichia coli heat-stable enterotoxin A (STa), purified from a bovine ETEC K99+ isolate (Escherichia coli (ETEC isolated from a diarrheic neonatal calf)); test: indirect ELISA on plate-bound STa, serum dilution 10^-6, pre-immunization serum
[7] = target: Escherichia coli heat-stable enterotoxin A (STa), purified from a bovine ETEC K99+ isolate (Escherichia coli (ETEC isolated from a diarrheic neonatal calf)); test: indirect ELISA on plate-bound STa, serum dilution 10^-5, pre-immunization serum

In the case of “baseline (pre-immunization) rabbit serum (antibody)”, the Avidity Index (%) [1] is reported as 4.7% and 3% and 0%, the OD at 405 nm with 5 M ammonium thiocyanate [2] is reported as 0.017 OD and 0.043 OD and 0.04 OD and the mean OD (405 nm) [3] is reported as 0.864 OD. It also gave a mean OD (405 nm) [4] of 0.232 OD, an ELISA Titer (reciprocal serum dilution) [5] of 0 and a mean OD (405 nm) [6] of 0.039 OD. For the same substance, the mean OD (405 nm) [7] was 0.033 OD.
